Test results reported in the supplement of paper PMC10126150.
± gives the standard deviation of the averaged measurements.

Test system: ATP
Assay: switch fluorescence ratio, 500 uM ATP over buffer (Cy3 cluster intensity, sum of 5 cycles each) (fold (ratio)); higher = stronger signal-on switching upon ATP binding; sequences stand for … in TCGTCGGCAGCGTCAGATGTGTATAAGAGACAGTTTTTTTTTTTTTTTTTTTTTTTTT…TC
Conditions: aptamer strand: ATP DNA aptamer (quencher-CACCTGGGGGAGTATTGCGGAGGAAGG + anchor), 100 nM annealed; ATP concentration: 500 uM
Outline: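 Per cluster, summed Cy3 intensity from the target cycles was divided by that from the buffer cycles to give the fluorescence ratio, then averaged per switch-domain sequence. Clusters outside 100-1000 RFU were excluded. The Cy3-labelled switching-strand clusters, on a modified Illumina MiSeq flow-cell, were annealed to 100 nM quencher-labelled ATP aptamer and imaged in selection buffer, then after 15 min with 500 uM ATP at 22 °C, for five cycles with NaOH stripping and re-annealing between them.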
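Also: ATP exposure 15 min at 22 °C before imaging.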

| Sequence | switch fluorescence ratio |
| --- | --- |
| GGAACAGAGG | 0.9769 ± 0.007 |
| GGAACATATA | 1.01 ± 0.0064 |
| GGAACCTTGG | 1.023 ± 0.0094 |
| GGAACCTTTT | 1.04 ± 0.041 |
| GGAACTCGCT | 1.02 ± 0.11 |
| GGAACTGGAG | 1.07 ± 0.031 |
| GGAAGAATAG | 1.02 ± 0.038 |
| GGAAGGAATG | 0.966 ± 0.0076 |
| GGAAGGCGGC | 1.08 ± 0.071 |
| GGAAGGGGGA | 1.07 ± 0.096 |
| GGAAGGGTCG | 1.04 ± 0.022 |
| GGAAGGGTTT | 1.03 ± 0.061 |
| GGAAGTAGCC | 0.959 ± 0.038 |
| GGAAGTGGGA | 1.018 ± 0.0069 |
| GGAAGTTCTA | 0.984 ± 0.016 |
| GGAAGTTTAA | 1 ± 0.02 |
| GGAATAAGGT | 1.01 ± 0.031 |
| GGAATAGAAA | 0.994 ± 0.033 |
| GGAATAGATG | 1.026 ± 0.0015 |
| GGAATAGGGT | 0.98 ± 0.052 |
| GGAATCCGGG | 0.987 ± 0.037 |
| GGAATCCTTG | 1 ± 0.0087 |
| GGAATCGGGC | 0.9487 ± 0.0014 |

| Sequence | switch fluorescence ratio |
| --- | --- |
| GGAATCGGTG | 0.996 ± 0.04 |
| GGAATGAAG | 1.012 ± 0.01 |
| GGAATGACGA | 0.989 ± 0.048 |
| GGAATGAGTA | 0.997 ± 0.016 |
| GGAATGCGGG | 0.9701 ± 0.0077 |
| GGAATGGGGA | 1 ± 0.037 |
| GGAATGGTAG | 1.01 ± 0.099 |
| GGAATGTCGG | 0.962 ± 0.051 |
| GGAATTGATG | 1.04 ± 0.046 |
| GGAATTGCA | 0.958 ± 0.022 |
| GGAATTGTCC | 1.44 ± 0.69 |
| GGAATTTGTT | 1 ± 0.021 |
| GGACAAAACT | 1.08 ± 0.12 |
| GGACAAGGGG | 0.962 ± 0.038 |
| GGACACATGC | 1.1 ± 0.14 |
| GGACATGTAG | 0.965 ± 0.024 |
| GGACCAAAAG | 1.002 ± 0.0067 |
| GGACCAGGGT | 1.04 ± 0.0071 |
| GGACCATATC | 1.07 ± 0.017 |
| GGACCGCATT | 2.5 ± 0.22 |
| GGACCGGTGA | 1.01 ± 0.042 |
| GGACCTGGTT | 0.986 ± 0.013 |
| GGACGCGTGG | 1.01 ± 0.018 |

| Sequence | switch fluorescence ratio |
| --- | --- |
| GGACGGAAGA | 1.101 ± 0.01 |
| GGACGGCCGC | 1.06 ± 0.037 |
| GGACGGTATT | 1.08 ± 0.051 |
| GGACGTTTTT | 1.01 ± 0.015 |
| GGACTACCGC | 1.14 ± 0.019 |
| GGACTCAGGG | 1.03 ± 0.051 |
| GGACTCTCGG | 0.967 ± 0.024 |
| GGACTTATTT | 0.986 ± 0.014 |
| GGACTTGTGA | 0.997 ± 0.018 |
| GGAGAAAGCG | 0.976 ± 0.016 |
| GGAGAATATG | 1.038 ± 0.0095 |
| GGAGACAGGA | 1.04 ± 0.012 |
| GGAGAGAAAG | 0.9866 ± 0.0024 |
| GGAGAGAGGG | 1.02 ± 0.044 |
| GGAGAGCATT | 1.039 ± 0.0091 |
| GGAGAGCGGT | 1.02 ± 0.011 |
| GGAGAGGCGT | 1 ± 0.013 |
| GGAGATAGTT | 0.9806 ± 0.0057 |
| GGAGATTGTG | 0.9766 ± 0.0043 |
| GGAGCAAGGG | 3.37 ± 1.5 |
| GGAGCAGGCG | 1.04 ± 0.04 |
| GGAGCTAGGG | 1.056 ± 0.0058 |
| GGAGGAAGGC | 1.75 ± 0.58 |

| Sequence | switch fluorescence ratio |
| --- | --- |
| GGAGGAAGGG | 0.983 ± 0.025 |
| GGAGGAGATA | 0.995 ± 0.02 |
| GGAGGAGTGT | 0.959 ± 0.037 |
| GGAGGATGAG | 1.01 ± 0.013 |
| GGAGGATGGG | 1 ± 0.014 |
| GGAGGCGGTG | 1.048 ± 0.0039 |
| GGAGGCTAGC | 1.01 ± 0.054 |
| GGAGGGATAA | 1.1 ± 0.054 |
| GGAGGGCTCG | 0.981 ± 0.043 |
| GGAGGGGATG | 0.981 ± 0.011 |
| GGAGGGTGAG | 0.984 ± 0.014 |
| GGAGGGTTAT | 0.995 ± 0.038 |
| GGAGGTTAAC | 1.012 ± 0.0091 |
| GGAGTAAGAT | 1.3 ± 0.018 |
| GGAGTACTGT | 1.02 ± 0.013 |
| GGAGTATGGG | 0.997 ± 0.029 |
| GGAGTCAGAA | 0.995 ± 0.014 |
| GGAGTCTAGC | 0.9825 ± 0.0036 |
| GGAGTGGGTC | 1.02 ± 0.041 |
| GGAGTGGTTG | 0.999 ± 0.036 |
| GGAGTTAAGT | 0.987 ± 0.043 |
| GGAGTTGAGG | 0.98147 ± 0.00093 |
| GGAGTTGATT | 0.9808 ± 0.0015 |

| Sequence | switch fluorescence ratio |
| --- | --- |
| GGAGTTGTGA | 0.995 ± 0.021 |
| GGAGTTTGGG | 0.994 ± 0.039 |
| GGAGTTTGTG | 0.989 ± 0.014 |
| GGATAAGGAC | 0.984 ± 0.019 |
| GGATAATAAG | 1.01 ± 0.029 |
| GGATAATATT | 1.05 ± 0.026 |
| GGATACCGTA | 1 ± 0.085 |
| GGATAGAGGA | 1.01 ± 0.02 |
| GGATAGGGGC | 1.03 ± 0.054 |
| GGATATAGTC | 1 ± 0.036 |
| GGATATATGG | 1 ± 0.025 |
| GGATATCTGG | 1.014 ± 0.0053 |
| GGATATGAGG | 1 ± 0.018 |
| GGATATGTGT | 0.991 ± 0.016 |
| GGATATTTGG | 0.992 ± 0.029 |
| GGATCCACGG | 1.012 ± 0.005 |
| GGATCCTTTC | 1.23 ± 0.083 |
| GGATCGCGAA | 0.978 ± 0.011 |
| GGATCGGGGG | 1.03 ± 0.05 |
| GGATCGTGGG | 0.995 ± 0.03 |
| GGATGAAGGA | 0.978 ± 0.038 |
| GGATGAATTG | 1.01 ± 0.018 |
| GGATGATTTG | 0.968 ± 0.025 |

| Sequence | switch fluorescence ratio |
| --- | --- |
| GGATGCGCAG | 0.987 ± 0.016 |
| GGATGCGGCC | 0.992 ± 0.023 |
| GGATGGGATG | 0.989 ± 0.04 |
| GGATGGGGTG | 1.01 ± 0.053 |
| GGATGTCTAG | 0.9885 ± 0.0037 |
| GGATGTGGGA | 0.981 ± 0.017 |
| GGATGTGGGG | 0.969 ± 0.034 |
| GGATGTTAGT | 1 ± 0.008 |
| GGATGTTTGG | 0.975 ± 0.014 |
| GGATTAAATG | 0.982 ± 0.037 |
| GGATTAATCG | 1 ± 0.015 |
| GGATTACAGT | 0.997 ± 0.014 |
| GGATTAGGGG | 0.998 ± 0.022 |
| GGATTAGTCA | 0.9973 ± 0.0047 |
| GGATTATATT | 1.0205 ± 0.00083 |
| GGATTCAGGC | 0.981 ± 0.027 |
| GGATTCCGGC | 0.981 ± 0.053 |
| GGATTCGGTG | 0.976 ± 0.02 |
| GGATTGAAGT | 0.981 ± 0.023 |
| GGATTGAGGC | 0.968 ± 0.0046 |
| GGATTGAGGT | 1.02 ± 0.032 |
| GGATTGATTA | 1.01 ± 0.032 |
| GGATTGATTT | 0.993 ± 0.038 |

| Sequence | switch fluorescence ratio |
| --- | --- |
| GGATTGCCGA | 1.01 ± 0.043 |
| GGATTGGCGG | 0.983 ± 0.039 |
| GGATTGTTTG | 1.009 ± 0.01 |
| GGATTTAATA | 1.02 ± 0.03 |
| GGATTTAATG | 0.9523 ± 0.0057 |
| GGATTTATAA | 0.9961 ± 0.0011 |
| GGATTTTATC | 0.992 ± 0.013 |
| GGATTTTGTT | 0.998 ± 0.031 |
| GGATTTTTAT | 0.999 ± 0.028 |
| GGATTTTTCA | 0.985 ± 0.013 |
| GGATTTTTGG | 0.989 ± 0.036 |
| GGCAAAGGAC | 1.08 ± 0.027 |
| GGCAAATCGG | 0.995 ± 0.014 |
| GGCAACAGCG | 1.039 ± 0.003 |
| GGCAACGCGT | 1 ± 0.025 |
| GGCAATATGT | 1.24 ± 0.077 |
| GGCAATCCCA | 1.03 ± 0.012 |
| GGCAATTATG | 1.02 ± 0.025 |
| GGCAATTTTT | 0.992 ± 0.049 |
